Our source for the thrombin time (TT), clotting time of control plasma, preparation CRA P1, thrombin time (TT), clotting time of control plasma, preparation CRA P2 and thrombin time (TT), clotting time of control plasma, preparation CRA P3 values is paper PMC12731043.

The target of this test is thrombin (factor IIa).

Substance “cysteine-rich anticoagulant protein (CRA), recombinant, mature form with C-terminal His-Tag (natural protein)” yielded a thrombin time (TT), clotting time of control plasma, preparation CRA P1 at 1 µM and 5 µM (21.8 s to 66.8 s; control without protein 14.3 s and 11.7 s) of 66.8 s; a thrombin time (TT), clotting time of control plasma, preparation CRA P2 at 1 µM and 5 µM (16.6 s to 30.7 s; control without protein 14.3 s and 11.7 s) of 30.7 s; a thrombin time (TT), clotting time of control plasma, preparation CRA P3 at 1 µM and 5 µM (20.1 s to 43.3 s; control without protein 14.3 s and 11.7 s) of 43.3 s.
